This note sets out measurements from the nanobody polyreactivity screen of Harvey et al. (2022).

The series in a line: yeast display, Sf9 membrane polyspecificity reagent, FACS + sequencing; frameworks hold sequencing errors. The method in brief:
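Nanobodies came from a synthetic yeast display library in Saccharomyces cerevisiae BJ5465, induced with galactose for 36–48 hours and stained for 1 hour at 4 °C with 10% biotinylated, detergent-solubilized Sf9 membrane reagent. Cells were enriched on streptavidin microbeads and then FACS-sorted, with low and high (top ~1%) gates set on anti-HA fluorescence for expression and streptavidin fluorescence for reagent binding. Each polyreactivity label reflects the gate a clone came from. Genes were amplified by colony PCR, sequenced by MiSeq 2 × 250 and filtered by CDR length.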
As for “QDQLVESGGGLVQAGGSLRLSCAASGSIFRKYVMGWYRQAPGKERELVAAISGSGGRTYYADSVKGRFTISRDNAKNTVYLQMNSLKPEDTAVYYSNAYPHAYTGSTREGDYWGQGTQVTVSS”, the “polyreactivity (PSR sort gate)” value was “high polyreactivity”.
The result for “QDQLVESGGGLVQAGGSLRLSCAASGSIFTFNTMGWYRQAPVKERELVATISSGGRTYYADSVKGRFTISRDNAKNTVYLQMNSLKPEDTSVYYCNKGYYGYTYVEYNYWGQGTQVTVSS” reads “low polyreactivity”; that for “QDQLVESGGGLVQAGGSLRLSCAASGSIFVENAMGWYRQAPGKEREFVAAITRSGGSTYYADSVKGRFTISRDNAKNPVYLQMNSMKPEDTAVYYCAARIWDEQPAAGYYWGQGTQVTVSS”, “low polyreactivity”.
“QDQLVESGGGLVQAGGSLRLSCAASGSIFWLYAMGWYRQAHGKERELVASITGGGSTNYADSVKGRFTISRDNAKNTVYLQMNSLKPEDTAVYYCAKRYYRTGRKRTGLDYWGQGTQVTVSS”: the “polyreactivity (PSR sort gate)” value is listed as “high polyreactivity”.
To “QDQLVESGGGLVQAGGSLRLSCAASGSIFYYYAMGWYRQAPGKERELVASISRSGGSTFYADSVKGRFTISRDNAKNSVYLQMNRLKPEDTAVSYCATGWYYSPYNYWGQGTQVTVSS” belongs “high polyreactivity”; to “QDQLVESGGGLVQAGGSLRLSCAASGSIFYYYVMGWYRQETGKEREFVAAISWGGDSTYYADSVKGRFTISRDNAKNTVYLQMNSLKTEDTAVYYCKADYPWSVLAYDYWGQGTQVTVSS”, “low polyreactivity”; to “QDQLVESGGGLVQAGGSLRLSCAASGSISSTNAMGWYRQAPGKERELVATISWIGGSTYADSVKGRFTISRDNAKNTVYLQMNSLKPEDTAVYYCNRDWIFTKDYDYWGQGTQVTVSS”, “low polyreactivity”.
The result for “QDQLVESGGGLVQAGGSLRLSCAASGSMLVNNAMGCYRQAPGKERELVAASSKSTGRTYYADSVKGRFTISRDNAKNTVYLQMNSLKPVDTAVFYCYALTHPDKFVYWGQGTQVTVSS” reads “high polyreactivity”; that for “QDQLVESGGGLVQAGGSLRLSCAASGSNFGPYAMGGYRHAPGKERELVARISGGGSTYYADSVKGRFTISRDNAKNTVYLQMNSLKPEDTAVYYCNVRNWAYWSHAIIYNYWGQGTLVTVSS”, “high polyreactivity”; that for “QDQLVESGGGLVQAGGSLRLSCAASGSNFPTNAMGWYRPAPGKERELVADITIRGGGTSYADSVKGRFTISRDNAKNTVYLHMNSLKPEDTAFYYCARSKSTELKRLLFDSWGQGTQVTVSS”, “low polyreactivity”.
To “QDQLVESGGGLVQAGGSLRLSCAASGSNLYRNAMGWSRQAPGKERELVAAITSRGGSTYADSVTGRFTISRDNAKNTVYLQMNSLKPEDTAVYYCAKGYLYRRPTVTHGYWGQGTQVTVSS” belongs “low polyreactivity”; to “QDQLVESGGGLVQAGGSLRLSCAASGSTFAGNGMGWYRQAPGKERELVAGIDVTGGSTYYADSVKGRFTISRDNAKNTVYLQMNSLKPEDTAVYFCNARYVYHSSFAGFDYWGQGTQVTVSS”, “low polyreactivity”.
Consider “QDQLVESGGGLVQAGGSLRLSCAASGSTFAGYAMGWYRQAPGKERELVATITYSGGSTYYADSVKGRFTISRDNAKNTVYLQMNSLKPEDTAVYYCAKKASYWWGYEYWGQGTQVTVSS”, for which the “polyreactivity (PSR sort gate)” value is recorded as “low polyreactivity”.
The result for “QDQLVESGGGLVQAGGSLRLSCAASGSTFGNYAMGWYRQAPGKERELVAAITSGGTTNYADSVKGRFTISRDNAKNTVYLQMNSLKPEDTAVYYCNAVGTFVRYSTDGRDGVTYDYWGHGTQVTVSS” reads “low polyreactivity”.
To “QDQLVESGGGLVQAGGSLRLSCAASGSTFIDNVMGWYRQPPGQERELVAAINSGGSTDYADSLKGRFTISRDNAKNTVYLLMNRLKPEDTAVYYCNAYHIVIYDYWGQGTQVTVSS” belongs “low polyreactivity”.
For the sequence “QDQLVESGGGLVQAGGSLRLSCAASGSTFQWYAMVWYRQAPGKERELVAAINKSGGTTYYADSVKGRFTISRDNAKNTVYLQMNRLKPEDTAVYYCATDNPVVYQPGNLDYWVQGTQVTVSS”, the “polyreactivity (PSR sort gate)” value is “low polyreactivity”.
With “QDQLVESGGGLVQAGGSLRLSCAASGSTFRGNAKGWYRQAPGKERELVAAITGSGGRRYYADSVKGRFTISRDYAKNTVYLQMNSLKPEDTAVYYCAAVYYGYRDRTDYGYWGQGTQVTVSS”, the “polyreactivity (PSR sort gate)” value was “high polyreactivity”.
For the sequence “QDQLVESGGGLVQAGGSLRLSCAASGSTFSDNTMGWYRQAPGKERELVAANTTIGGSTYYADSVKGRFTISRDNAKNTVSVQMISLKPEDTAVYYCAAVDFTSQYYDLYIYWGQGTQVTVSS”, the “polyreactivity (PSR sort gate)” value was “low polyreactivity”.
The result for “QDQLVESGGGLVQAGGSLRLSCAASGSTFTPNALGWYRQPPGKQRELVAAISTRGSSTYYADSVKGRFTISRDNAKNTVYLQMNRLKPEDTAVYSCAAPFKYGLSYGSWYGYCGQGTQVTVSS” reads “high polyreactivity”; that for “QDQLVESGGGLVQAGGSLRLSCAASGSTFYIYAMGWNIQAPGKERELVAAISTTDGTTYYADSVKGRFTISRDNAKKTVYLQMNSLKPEDTAVYYCAAEWFGSVQPAYDYWGQVTQVTVSS”, “high polyreactivity”; that for “QDQLVESGGGLVQAGGSLRLSCAASGSTFYYNAMGLYRQAPGKEREVVARISRSGGSTYADSVKGRFTISRDNAKNTVYLQMNSLKPEDTAVYYCNADAYGTPEFTSYAVRYDYWGQGTQVTVSS”, “low polyreactivity”.
The result for “QDQLVESGGGLVQAGGSLRLSCAASGVTFVTYAMGGSRQAPGKERELVAAITTGGSTNYADSVKGRFTISRDNAKNTVYLQMNSLKPEDTAVYYCAAQRVSVLLFVRHDYWGQGTQVTVSS” reads “low polyreactivity”.
To “QDQLVESGGGLVQAGGSLRLSCAASGYTFKAYAMVWYRQAPGKERELVDAISRGGRTNYADSVKGRFTISRDNAKNTVYLQMNSLKPEDTAVYYCNTQRQLGVRFYDRSRQGDYWGQGTQVTVSS” belongs “high polyreactivity”; to “QDQLVESGGGLVQAGGSLRLSCAASGYTFSYYAMGWYRQAPGKERELVAAITSTGSTYYADSVKGRFTISRDYAKNTVYLQMNILKPEDTAVYYCNVDDATVGPVDYWGQGTQVTVSS”, “low polyreactivity”.
Consider “QDQLVESGGGLVQAGGSLRLSCAASRLTFYVYAMGWYRQAPGKERELVAAISGRGGRTYYADSVKGRFTISRDNAKNTVYLQMNSLKPEDTAVYDCAPRYPRYRYVEYGYNYWGQGTQVTVSS”, for which the “polyreactivity (PSR sort gate)” value is given as “high polyreactivity”.
The result for “QDQLVESGGGLVQAGGSLRLSCAASVFIFYSYTRGWYRQAPGKERELVATISSNGGRTYYADSVKGRFTISRDNAKNTVYLQMNSLKPEDTAVYYCATDVPHGYYWSYGDYYCGQGTQVTVSS” reads “low polyreactivity”; that for “QDQLVESGGGLVQAGGSLRLSCAASVSIFASYAMGRYRPAPGKERELVAAISSRGSRTYYADSVKGRFTISRDNAKNTVYLQMNRLKPQDTAVYYCAAYSPDYYNAEFGYWGQGTHVTVSS”, “high polyreactivity”; that for “QDQLVESGGGLVQAGGSLRLSCASSGFTIVYYAMGWYRQAPGKERELVADISSYGSTYADSVKGRFTISRDNAKNTVYLLMNSLKPEDTAVYYCAAEYIYQPHYGYYYWGQGTQVTVSS”, “high polyreactivity”.
The result for “QDQLVESGGGLVQAGGSLRLSCRASGFTFTHYAMGWSRKAPGKERELVAAIDRSGDSTYYADSVKGRFTISRDNAKNTVYLQMNSLKPEDTAVYYSAADLFDSLIWVYWTYVARFDYWGQGTQVTVSS” reads “low polyreactivity”; that for “QDQLVESGGGLVQAGGSLRLSCSASGSIVGLYAMGWYRQAPGKERELVAAITASDGYTYYADSVKGRFTNSRDNAKNTVYLQMNSLKPEDTAVYYCNADAYSGYFLFDYWGQGTQVNVSS”, “low polyreactivity”; that for “QDQLVESGGGLVQAGGSLRLSCSAYGSILKNNAMGLYIQSPGQERELVAAISSDGSTNYADSVKGRFRISRDNAKNTVYLQMNSLKPEDTAVYYCAAHDNGAWVRMDYWGQGTQVTVSS”, “low polyreactivity”.
In the case of “QDQLVESGGGLVQAGGSLRLSFAASGATFKRYAMGWYRQAPGKERELVATINSGTSTNYADSVKGRFTISRDNAKNTVYLQMNSLKPEDTAVYYCAKTFRRSVGGYGYDYWGQGTQVTVSS”, the “polyreactivity (PSR sort gate)” value is “low polyreactivity”.
“QDQLVESGGGLVQAGGSLRLSSAASGFTFAHYARGWYRQAPGKERELVAAISGSGSSTYYADSVKGRFTISRDNAKNTVYLQMNSLKPEDTAVYYCNVRWYFLYDYWGQGTQVTVSS”: the “polyreactivity (PSR sort gate)” value is listed as “low polyreactivity”.
To “QDQLVESGGGLVQAGGSLRLSSAASGRIFKWNAMGWYRPAPGTERQLVAAIRWSGTSTYADSVKGRFTISRDNAKNTVYLHMNSLKPEDTAVYYCAAQDVSAPGWWLHYWGQGTQVTVSS” belongs “low polyreactivity”; to “QDQLVESGGGLVQAGGSLRLSSAGSGSIFFSYAMGWYRQAPGKEREFVAAINSDDASTYADSVKGRFTISRDNAKNTVYLQMNSLKPEDTAVYYCAASFLWSWYDYWGQGTQVTVSS”, “low polyreactivity”; to “QDQLVESGGGLVQAGGSLRLTCAASGFTIWYYAMGWYRQAPGKERELVAAISSVSSTKYADSVKGRFTISRDNAKNTVYFQMNSLKPEDTAVYYCAADIVRYWRHGFGWRRYDYWGQGTQVTVSS”, “high polyreactivity”.
The result for “QDQLVESGGGLVQAGGSLRRSCAASGFTFFIYAMGWYRQAPGKEREFVAAITGSGGSTYYADSVKGRFTISRDNAKNTVYLQMNRLKPEDTAVYYCNKLSYGRSGYWGQGTQVTVSS” reads “high polyreactivity”; that for “QDQLVESGGGLVQAGGSLSLSCAASGSIIPNYAMGWYRQAPGKERELVAAISSSGGRTYYADSVKGRFTISRDNAKNTVYLQMNCLKPEDTAVYYCAADTYTSAQHEKYDYWGQGTQVTVSS”, “low polyreactivity”; that for “QDQLVESGGGLVQAGGTLRLRCAATGSTVYPTYAMGWYRQAPGKEWELVATITGSGGYTYYADSVKGRFTISRDNAKNTVYLQINSLKPEDTAVYYCAADRWYSRYTRYGYRGQGTQVTVSS”, “low polyreactivity”.
Turning to “QDQLVESGGGLVQARGSLRLICSASGFIISDYAMGWSRQAPGEERELVAVITWRSGSTYYADSVKGRFTISRDNAKNTVYLQMNSLKPEDTAVYYCAARYYRNYSQGRRLGYNYWGQGTQVTVSS”, the “polyreactivity (PSR sort gate)” value was “high polyreactivity”.
